Results on 1 molecule are retold here after patent US20240279622A1, “COELENTERAZINE-UTILIZING LUCIFERASES WITH STABLE GLOW-TYPE LIGHT EMISSION AND METHODS OF PRODUCING AND USING THEREOF” (MASARYKOVA UNIVERZITA, priority 2021, published 2024).

A short description of series [1]: Thermal unfolding by NanoDSF (tryptophan fluorescence). Format: physicochemical. The settings on record: 100 mM potassium phosphate buffer pH 7.5, 1° C./min. On the procedure:
Thermal unfolding was studied using NanoDSF Prometheus (NanoTemper, Germany) by monitoring tryptophan fluorescence over the temperature range of 20 to 90° C., at a heating rate of 1° C./min. The melting temperatures (Tonset and Tm) were evaluated directly by ThermControl v2.0.2.
(In DSF a fluorescence change marks the thermal transition of the protein.)

For series [2] the following is noted: pH 7.5.
Experimental: Solid coelenterazine was dissolved in ice-cold ethanol and stored under a nitrogen atmosphere in dark glass vials at −20° C. Before each measurement, the concentration and maintained quality of the ethanol stock solutions were verified spectrophotometrically. A buffer solution of coelenterazine was prepared by mixing an appropriate volume of the ethanol stock solution with 100 mM phosphate buffer pH 7.5 immediately before the measurement. Tested luciferase enzyme samples were dissolved in the same 100 mM phosphate buffer pH 7.5. The enzymatic reaction was initiated inside the microplate reader FLUOstar OPTIMA (BMG Labtech, Germany) by the automatic addition of 225 μL buffer solution of coelenterazine into a microplate well containing 25 μL of enzyme solution. The resulting bioluminescence activity traces were collected at 37° C. until the luminescence intensity decreased to less than 0.5% of its maximal measured value. Each luminescence trace was measured in 3 repetitions. The concentration of coelenterazine in the final reaction mixture was 2.2 μM while the concentration of luciferase enzymes was 50 nM. The obtained luminescence kinetic data were fitted to an exponential decay or a logistic model using Origin 6.1 (OriginLab, USA) and the value of half-life t1/2, defined as the time when the initial luminescence signal decreased to 50%, was calculated.
The conditions of series [3]: from Loening et al. (2006); cited from earlier work.

B1: RLuc: Luciferase isolated from the sea pansy Renilla reniformis (protein)
chain: MTSKVYDPEQRKRMITGPQWWARCKQMNVLDSFINYYDSEKHAENAVIFLHGNAASSYLWRHVVPHIEPVARCIIPDLIGMGKSGKSGNGSYRLLDHYKYLTAWFELLNLPKKIIFVGHDWGACLAFHYSYEHQDKIKAIVHAESVVDVIESWDEWPDIEEDIALIKSEEGEKMVLENNFFVETMLPSKIMRKLEPEEFAAYLEPFKEKGEVRRPTLSWPREIPLVKGGKPDVVQIVRNYNAYLRASDDLPKMFIESDPGFFSNAIVEGAKKFPNTEFVKVKGLHFSQEDAPDEMGKYIKSFVERVLKNEQ
modifications: RLuc
A word on the Tm: it is the temperature at the midpoint of the melting transition. One may read the kcat as the number of substrate molecules converted per active site and unit of time at saturation. Consider B1, for which, in series [1], the Tm was found to be 43.7 ± 0.1 °C and the Tonset was 36.3 ± 0.2 °C. Besides, the “Half-life (t1/2)” value in series [2] was 16.4 ± 0.06 s. For the same molecule, the kcat in series [3] is 3.9 ± 0.4 s⁻¹.
